Experimental data taken from patent US20210063414A1, “METHODS FOR PREVENTING AND/OR TREATING BONE LOSS CONDITIONS BY MODULATING IRISIN” (Dana-Farber Cancer Institute, Inc., priority 2018, published 2021).

What was measured:
Test in all cases: Crosslinking/co-immunoprecipitation/mass spectrometry (TMT quantitative proteomics) to identify irisin receptors
Type in all cases: binding
[1] = target: T1, MLO-Y4 cell surface proteins (Mus musculus, UniProt P62880); conditions: co-precipitated protein Gnb2 (GBB2_MOUSE)
T1 construct: endogenous in cells; host or cells: MLO-Y4
In short: (§1)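 Relative protein abundance came from 6-plex TMT MS3 quantitation on an Orbitrap Fusion Lumos, after in-gel trypsin digestion of Coomassie-stained SDS-PAGE lanes. Input was a Ni-NTA pulldown (250 mM imidazole elution) of lysates from murine MLO-Y4 cells. These cells were treated on ice with His-tagged irisin or adipsin (10 nM, 20 min) in serum-free medium, then crosslinked with 1.5 mM DTSSP for 30 min.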

[2] = target: T2, MLO-Y4 cell surface proteins (Mus musculus, UniProt P35762); conditions: TMT ratio, Cd81 CD81 antigen
T2 construct: endogenous in cells; host or cells: MLO-Y4
T2 sequence (P35762 1-236): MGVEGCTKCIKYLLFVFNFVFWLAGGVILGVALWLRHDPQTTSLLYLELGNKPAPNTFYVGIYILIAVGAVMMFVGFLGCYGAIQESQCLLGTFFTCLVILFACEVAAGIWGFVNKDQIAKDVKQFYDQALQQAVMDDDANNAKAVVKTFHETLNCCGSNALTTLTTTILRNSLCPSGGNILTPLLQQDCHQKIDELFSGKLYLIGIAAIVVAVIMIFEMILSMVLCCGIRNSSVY
In short: as §1

[3] = target: T3, MLO-Y4 cell surface proteins (Mus musculus, UniProt P55292); conditions: co-precipitated protein Dsc2 (DSC2_MOUSE)
T3 construct: endogenous in cells; host or cells: MLO-Y4
T3 sequence (P55292 136-902): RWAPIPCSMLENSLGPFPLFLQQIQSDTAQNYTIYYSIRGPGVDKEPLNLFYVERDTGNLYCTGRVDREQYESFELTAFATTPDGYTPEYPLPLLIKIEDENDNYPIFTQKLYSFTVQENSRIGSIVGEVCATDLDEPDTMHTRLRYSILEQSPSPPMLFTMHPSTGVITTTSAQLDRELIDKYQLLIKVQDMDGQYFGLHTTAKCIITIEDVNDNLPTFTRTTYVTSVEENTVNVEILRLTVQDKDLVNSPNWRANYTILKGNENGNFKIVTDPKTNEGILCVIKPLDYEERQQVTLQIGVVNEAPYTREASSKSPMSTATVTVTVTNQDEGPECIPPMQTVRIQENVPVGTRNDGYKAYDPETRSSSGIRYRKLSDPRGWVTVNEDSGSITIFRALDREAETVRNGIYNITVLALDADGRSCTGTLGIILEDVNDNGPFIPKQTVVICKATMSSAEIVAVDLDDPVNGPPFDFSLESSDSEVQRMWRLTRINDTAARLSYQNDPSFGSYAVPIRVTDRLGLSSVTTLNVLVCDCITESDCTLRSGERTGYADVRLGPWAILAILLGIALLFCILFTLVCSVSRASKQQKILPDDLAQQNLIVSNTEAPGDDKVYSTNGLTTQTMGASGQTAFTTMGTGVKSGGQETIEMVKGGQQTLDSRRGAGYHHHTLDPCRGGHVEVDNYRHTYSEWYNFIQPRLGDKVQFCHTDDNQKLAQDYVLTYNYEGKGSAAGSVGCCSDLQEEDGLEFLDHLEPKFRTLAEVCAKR
In short: as §1

T1 sequence (P62880 whole entry): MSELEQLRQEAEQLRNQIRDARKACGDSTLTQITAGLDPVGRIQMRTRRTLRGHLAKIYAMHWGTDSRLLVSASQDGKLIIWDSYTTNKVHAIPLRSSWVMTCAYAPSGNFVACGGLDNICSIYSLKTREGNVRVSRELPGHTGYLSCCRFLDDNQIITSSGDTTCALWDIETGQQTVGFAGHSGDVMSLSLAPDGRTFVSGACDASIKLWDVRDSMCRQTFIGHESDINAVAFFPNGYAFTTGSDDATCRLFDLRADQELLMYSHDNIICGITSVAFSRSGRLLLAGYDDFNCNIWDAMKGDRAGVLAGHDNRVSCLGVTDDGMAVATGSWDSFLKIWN

B1: irisin: secreted cleaved form of FNDC5; recombinant human/mouse irisin with C-terminal his tag produced in HEK293 cells (protein)
chain: DSPSAPVNVTVRHLKANSAVVSWDVLEDEVVIGFAISQQKKDVRMLRFIQEVNTTTRSCALWDLEEDTEYIVHVQAISIQGQSPASEPVLFKTPREAEKMASKNKDEVTMKE
modifications: left off: small tags and cut ends
notes: secreted cleaved form of FNDC5; recombinant human/mouse irisin with C-terminal his tag produced in HEK293 cells
[1]
  TMT signal-to-noise ratio: 165.95
  irisin/adipsin TMT signal-to-noise ratio: 0.563
[2]
  irsin/adipsin: 4.05
[3]
  TMT signal-to-noise ratio: 3.51
  irisin/adipsin TMT signal-to-noise ratio: 0.037
